# Experimental data from patent US20170204167A1 (INSTITUTE FOR RESEARCH IN BIOMEDICINE, published 2017).
# B1: FI6 variant 3 (antibody, V domains shown)
# VH: QVQLVESGGGVVQPGRSLRLSCAASGFTFSTYAMHWVRQAPGKGLEWVAVISYDANYKYYADSVKGRFTISRDNSKNTLYLQMNSLRAEDTAVYYCAKDSQLRSLLYFEWLSQGYFDYWGQGTLVTVSS
# VL: not shown
# B2: FI28 variant 1 (antibody, V domains shown)
# VH: EVQLVESGGGAVQPGESLKLSCAASGFTFSNYGMHWVRQAPGKGLEWVAVISYDGSNKYYADSVKGRFTISRDNSKDTLYLQMNSLRAEDTALFYCAKERPLRLLRYFDWLSGGANDYWGQGTLVTVSS
# VL: DIVMTQSPDSLAVSLGERATINCKSSQSVLYSSNNKNYLAWYQQKPGQPPKLLIDWASTRESGVPDRFSGSGSGTDFTLTISNLQVEDVAVYYCQQYYRSPSFGQGTKLEIK
# B3: FI6 variant 2 (antibody, V domains shown)
# VH: QVQLVQSGGGVVQPGRSLRLSCVASGFTFSTYAMHWVRQAPGRGLEWVAVISYDGNYKYYADSVKGRFSISRDNSNNTLHLEMNTLRTEDTALYYCAKDSQLRSLLYFEWLSQGYFDPWGQGTLVTVTS
# VL: DIQMTQSPDSLAVSLGARATINCKSSQSVTFNYKNYLAWYQQKPGQPPKVLIYWASARESGVPDRFSGSGSGTDFTLTISSLQAEDVAVYYCQQHYRTPPTFGQGTKVEIK
# Assays:
# [1] = target: T1, HA of H1N1 A/New Caledonia/20/99 (influenza A virus H1N1 A/New …); assay: ELISA on recombinant or purified HA
# [2] = target: T2, HA of H1N1 A/Solomon Islands/3/06 (influenza A virus H1N1 A/Solomon …); assay: ELISA on recombinant or purified HA
# [3] = target: T1, HA of H1N1 A/New Caledonia/20/99; assay: cell-based or functional assay
# [4] = target: T2, HA of H1N1 A/Solomon Islands/3/06; assay: cell-based or functional assay
# [5] = target: HA of H3N2 A/CA/7/04 (influenza A virus H3N2 A/CA/7/04); assay: cell-based or functional assay
# [6] = target: HA of H3N2 A/WI/67/05 (influenza A virus H3N2 A/WI/67/05); assay: cell-based or functional assay
Binder,EC50 [1],EC50 [2],"Neutralization of infectious viruses (IC50, µg/ml) [3]","Neutralization of infectious viruses (IC50, µg/ml) [4]","Neutralization of infectious viruses (IC50, µg/ml) [5]","Neutralization of infectious viruses (IC50, µg/ml) [6]"
B1,0.017 µg/mL,0.019 µg/mL,–,–,–,–
B2,–,–,> 100 µg/mL,> 100 µg/mL,> 100 µg/mL,> 100 µg/mL
B3,0.015 µg/mL,0.018 µg/mL,6.3 µg/mL,8.8 µg/mL,7.9 µg/mL,12.5 µg/mL
